Source: the supplement of paper PMC11246515
± gives the standard deviation of the averaged measurements.

Assay: total protein half-life in vivo (active degradation + dilution); higher = more stable protein
[1] = E. coli NCM3722 delta-clpP delta-lon delta-hslV, growth: N-lim chemostat, doubling time 6 h
[2] = E. coli NCM3722 delta-hslV, growth: N-lim chemostat, doubling time 6 h
[3] = wild type E. coli NCM3722, growth: C-lim chemostat, doubling time 3 h
[4] = wild type E. coli NCM3722, growth: C-lim chemostat, doubling time 6 h
[5] = wild type E. coli NCM3722, growth: C-lim chemostat, doubling time 12 h
[6] = wild type E. coli NCM3722, growth: N-lim chemostat, doubling time 6 h
[7] = wild type E. coli NCM3722, growth: N-lim chemostat, doubling time 12 h
[8] = wild type E. coli NCM3722, growth: P-lim chemostat, doubling time 12 h
[9] = E. coli NCM3722 delta-smpB, growth: N-lim chemostat, doubling time 6 h
[10] = E. coli NCM3722 delta-clpP, growth: N-lim chemostat, doubling time 6 h
[11] = E. coli NCM3722 delta-lon, growth: N-lim chemostat, doubling time 6 h
[12] = wild type E. coli NCM3722, growth: P-lim chemostat, doubling time 6 h

Sequence | total protein half-life in vivo [1] | total protein half-life in vivo [2] | total protein half-life in vivo [3] | total protein half-life in vivo [4] | total protein half-life in vivo [5] | total protein half-life in vivo [6] | total protein half-life in vivo [7] | total protein half-life in vivo [8] | total protein half-life in vivo [9] | total protein half-life in vivo [10] | total protein half-life in vivo [11] | total protein half-life in vivo [12]
MTKQPPIAKADLQKTQGNRAPAAVKNSDVISFINQPSMKEQLAAALPRHMTAERMIRIATTEIRKVPALGNCDTMSFVSAIVQCSQLGLEPGSALGHAYLLPFGNKNEKSGKKNVQLIIGYRGMIDLARRSGQIASLSARVVREGDEFSFEFGLDEKLIHRPGENEDAPVTHVYAVARLKDGGTQFEVMTRKQIELVRSLSKAGNNGPWVTHWEEMAKKTAIRRLFKYLPVSIEIQRAVSMDEKEPLTIDPADSSVLTGEYSVIDNSEE | 5.151 ± 0.025 h | 1.34 h | 2.62 ± 0.65 h | 3.79 ± 0.043 h | 7.28 ± 0.72 h | 1.57 h | 3.39 h | 4.09 ± 0.29 h |  |  |  | 
MTKTLLDGPGRVLESVYPRFLVDLAQGDDARLPQAHQQQFRERLMQELLSRVQLQTWTNGGMLNAPLSLRLTLVEKLASMLDPGHLALTQIAQHLALLQKMDHRQHSAFPELPQQIAALYEWFSARCRWKEKALTQRGLLVQAGDQSEQIFTRWRAGAYNAWSLPGRCFIVLEELRWGAFGDACRLGSPQAVALLLGDLLEKATQHLAESINAAPTTRHYYHQWFASSTVPTGGEHADFLSWLGKWTTADKQPVCWSVTQRWQTVALGMPRLCSAQRLAGAMLEEIFSVNLA |  |  | 2.56 ± 0.43 h | 5.83 ± 1.1 h | 7.8 h |  |  | 12.1 ± 0.79 h | 3.06 h |  |  | 
MTKYALVGDVGGTNARLALCDIASGEISQAKTYSGLDYPSLEAVIRVYLEEHKVEVKDGCIAIACPITGDWVAMTNHTWAFSIAEMKKNLGFSHLEIINDFTAVSMAIPMLKKEHLIQFGGAEPVEGKPIAVYGAGTGLGVAHLVHVDKRWVSLPGEGGHVDFAPNSEEEAIILEILRAEIGHVSAERVLSGPGLVNLYRAIVKADNRLPENLKPKDITERALADSCTDCRRALSLFCVIMGRFGGNLALNLGTFGGVFIAGGIVPRFLEFFKASGFRAAFEDKGRFKEYVHDIPVYLIVHDNPGLLGSGAHLRQTLGHIL [P0A6V8] | 5.167 ± 0.05 h | 4.8 ± 0.84 h | 2.78 ± 0.35 h | 6.3 ± 0.76 h |  | 5 ± 1.4 h | 9.21 ± 0.77 h | 15.2 ± 1.1 h | 5.16 ± 0.58 h | 5.45 ± 0.21 h | 5.7 ± 0.3 h | 
MTLETAFMLPVQDAQHSFRRLLKAMSEPGVIVALHQLKRGWQPLNIATTSVLLTLADNDTPVWLSTPLNNDIVNQSLRFHTNAPLVSQPEQATFAVTDEAISSEQLNALSTGTAVAPEAGATLILQVASLSGGRMLRLTGAGIAEERMIAPQLPECILHELTERPHPFPLGIDLILTCGERLLAIPRTTHVEVC |  |  |  |  |  |  |  | 3.12 ± 1.3 h |  |  |  | 1.74 ± 0.51 h
MTLKELLVGFGTQVRSIWMIGLHAFAKRETRMYPEEPVYLPPRYRGRIVLTRDPDGEERCVACNLCAVACPVGCISLQKAETKDGRWYPEFFRINFSRCIFCGLCEEACPTTAIQLTPDFEMGEYKRQDLVYEKEDLLISGPGKYPEYNFYRMAGMAIDGKDKGEAENEAKPIDVKSLLP [P0AFD6] | 6.29 ± 0.46 h | 6.38 ± 0.14 h | 3.32 ± 0.17 h | 6.25 ± 0.18 h | 12 ± 1.3 h | 5.99 ± 1.2 h | 15.2 ± 0.83 h | 13.6 ± 2.2 h | 6.351 ± 0.056 h | 7.36 ± 0.22 h | 7.21 ± 0.13 h | 6 ± 0.08 h
MTLLNISGLSHHYAHGGFNGKHQHQAVLNNVSLTLKSGETVALLGRSGCGKSTLARLLVGLESPAQGNISWRGEPLAKLNRAQRKAFRRDIQMVFQDSISAVNPRKTVREILREPMRHLLSLKKSEQLARASEMLKAVDLDDSVLDKRPPQLSGGQLQRVCLARALAVEPKLLILDEAVSNLDLVLQAGVIRLLKKLQQQFGTACLFITHDLRLVERFCQRVMVMDNGQIVETQVVGEKLTFSSDAGRVLQNAVLPAFPVRRRTTEKV | 6.58 h |  |  |  |  |  |  |  |  |  |  | 
MTLNKTDRIVITLGKQIVHGKYVPGSPLPAEAELCEEFATSRNIIREVFRSLMAKRLIEMKRYRGAFVAPRNQWNYLDTDVLQWVLENDYDPRLISAMSEVRNLVEPAIARWAAERATSSDLAQIESALNEMIANNQDREAFNEADIRYHEAVLQSVHNPVLQQLSIAISSLQRAVFERTWMGDEANMPQTLQEHKALFDAIRHQDGDAAEQAALTMIASSTRRLKEIT | 5.42 ± 0.19 h | 4.89 ± 0.076 h | 2.87 ± 0.24 h | 5.54 ± 0.089 h | 9.94 ± 0.54 h | 4.79 ± 0.079 h | 7.99 ± 0.64 h | 10.15 ± 0.052 h | 4.36 ± 0.15 h | 5.12 ± 0.7 h | 5.07 ± 0.42 h | 4.902 ± 0.047 h
MTLRKILALTCLLLPMMASAHQFETGQRVPPIGITDRGELVLDKDQFSYKTWNSAQLVGKVRVLQHIAGRTSAKEKNATLIEAIKSAKLPHDRYQTTTIVNTDDAIPGSGMFVRSSLESNKKLYPWSQFIVDSNGVALGAWQLDEESSAVVVLDKDGRVQWAKDGALTPEEVQQVMDLLQKLLK | 3.41 ± 0.29 h | 5.19 h | 2.78 ± 0.033 h | 4.952 ± 0.046 h | 7.33 ± 1.6 h | 5.43 ± 0.29 h | 7.61 ± 2.1 h | 8.359 ± 0.082 h | 5.29 ± 0.49 h | 4.29 ± 0.11 h | 5.62 ± 0.11 h | 4.74 ± 1.5 h
MTLSSQHYLVITALGADRPGIVNTITRHVSSCGCNIEDSRLAMLGEEFTFIMLLSGSWNAITLIESTLPLKGAELDLLIVMKRTTARPRPPMPASVWVQVDVADSPHLIERFTALFDAHHMNIAELVSRTQPAENERAAQLHIQITAHSPASADAANIEQAFKALCTELNAQGSINVVNYSQHDEQDGVK [P0A9I3] | 4.9 ± 0.79 h | 4.53 ± 0.06 h | 2.976 ± 0.012 h | 5.48 ± 0.32 h | 9.43 ± 3.2 h | 4.42 ± 0.34 h | 7.51 ± 0.33 h | 12.1 ± 1.4 h | 4.056 ± 0.037 h | 4.39 ± 0.19 h | 4.62 ± 0.24 h | 5.71 ± 0.46 h
